These results are taken from doi:10.1101/2023.08.10.552762.

Data set [1] concerns the target Escherichia coli SduA (Shedu system, E. coli KTE10) (Escherichia coli KTE10). Put plainly: SEC-MALS.
For data set [2], the target named is T1, EcSduA (Shedu SduA) (Escherichia coli, UniProt PDB:8PS5_1 1-411).
T1 sequence: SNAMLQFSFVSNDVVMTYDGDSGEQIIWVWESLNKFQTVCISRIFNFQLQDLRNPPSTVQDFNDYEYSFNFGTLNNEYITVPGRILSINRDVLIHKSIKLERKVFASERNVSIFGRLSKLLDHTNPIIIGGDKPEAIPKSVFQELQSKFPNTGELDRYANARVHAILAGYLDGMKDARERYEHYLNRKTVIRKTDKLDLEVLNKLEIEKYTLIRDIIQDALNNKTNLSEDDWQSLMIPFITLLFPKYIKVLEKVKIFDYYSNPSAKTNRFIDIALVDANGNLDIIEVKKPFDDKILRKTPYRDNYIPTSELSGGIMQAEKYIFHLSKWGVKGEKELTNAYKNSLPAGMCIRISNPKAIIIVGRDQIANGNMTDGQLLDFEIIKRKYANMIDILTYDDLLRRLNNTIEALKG
Put plainly: fluorescence polarization. On the technique in general: In fluorescence polarisation assays a small probe gives low polarisation when free and higher when bound to something large.

Data set [3] concerns the target T1, EcSduA (Shedu SduA). The experiment in a line: cryo-EM structure.

Usually stoichiometry N stands for the number of molecules, sites or subunits per partner or assembly. Turning to “Escherichia coli SduA (Shedu system, E. coli KTE10) (enzyme)”, the stoichiometry N in data set [1] was found to be 4.

B1: 40 bp dsDNA oLL321/oLL322 (dsDNA)
DNA 1: GATACCAGCTCTATGTTGACCTCTCAGATCGGCACTACTT
DNA 2: AAGTAGTGCCGATCTGAGAGGTCAACATAGAGCTGGTATC
One may read the Kd as the constant that tells how readily two partners part at equilibrium. A lower Kd goes with a tighter complex. The molecule B1 displayed a Kd in data set [2] of 11.9 ± 0.4 nM.

B2: 40 bp palindromic dsDNA oLL314 (dsDNA)
DNA 1: CTAGTGCATCTGAATCGTCATGACGATTCAGATGCACTAG
DNA 2: B2 DNA 1
In the case of B2, the binding result in data set [3] is “binds”.
